The record followed here is publication doi:10.1101/2024.10.01.616040 (bioRxiv, 2024).

In data set [1] the target is His-TEV-ORF1p (human) (UniProt Q9UN81). The data set is described as follows: mass photometry.
Data set [2] concerns the molecule itself. The data set can be described thus: mass photometry.

With “His-TEV-ORF1p (from UniProt Q9UN81 1-338) (natural protein)”, the percent of counts that are monomers in data set [1] worked out at 30%.

B1: K3A/K4A-ORF1p (natural protein)
chain: MGAAQNRKTGNSKTQSASPPPKERSSSPATEQSWMENDFDELREEGFRRSNYSELREDIQTKGKEVENFEKNLEECITRITNTEKCLKELMELKTKARELREECRSLRSRCDQLEERVSAMEDEMNEMKREGKFREKRIKRNEQSLQEIWDYVKRPNLRLIGVPESDVENGTKLENTLQDIIQENFPNLARQANVQIQEIQRTPQRYSSRRATPRHIIVRFTKVEMKEKMLRAAREKGRVTLKGKPIRLTADLSAETLQARREWGPIFNILKEKNFQPRISYPAKLSFISEGEIKYFIDKQMLRDFVTTRPALKELLKEALNMERNNRYQPLQNHAKM
B1: in data set [2], the “stoichiometry N” value amounted to 6.

B2: ΔStammer-ORF1p (natural protein)
chain: MGKKQNRKTGNSKTQSASPPPKERSSSPATEQSWMENDFDELREEGFRRSNYSELREDIQTKGKEVENFEKNLEECITRITNTEKCLKELKTKARELREECRSLRSRCDQLEERVSAMEDEMNEMKREGKFREKRIKRNEQSLQEIWDYVKRPNLRLIGVPESDVENGTKLENTLQDIIQENFPNLARQANVQIQEIQRTPQRYSSRRATPRHIIVRFTKVEMKEKMLRAAREKGRVTLKGKPIRLTADLSAETLQARREWGPIFNILKEKNFQPRISYPAKLSFISEGEIKYFIDKQMLRDFVTTRPALKELLKEALNMERNNRYQPLQNHAKM
Turning to B2, the “stoichiometry N” value in data set [2] turned out to be 6.
